Where no end group is shown, it is not given here. The star is where a group is joined. lipoyl = O=C(CCCC[C@@H]1CCSS1)*
Target: T1, N-terminally truncated human SIRT4 (33-314) (human) (UniProt Q9Y6E7)
T1 sequence: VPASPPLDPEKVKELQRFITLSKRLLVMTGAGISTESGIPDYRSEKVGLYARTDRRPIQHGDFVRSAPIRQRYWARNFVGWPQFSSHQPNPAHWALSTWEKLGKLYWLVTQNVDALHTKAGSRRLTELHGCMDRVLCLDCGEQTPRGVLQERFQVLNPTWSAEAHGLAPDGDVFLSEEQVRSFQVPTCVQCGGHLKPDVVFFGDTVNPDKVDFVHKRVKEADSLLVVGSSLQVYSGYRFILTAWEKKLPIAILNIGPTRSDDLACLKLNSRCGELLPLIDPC

Km of delipoylation, steady-state kinetics (HPLC-based assay, SIRT4 5 μM): 239 µM
B1: DLAT K259 Lipoyl peptide (peptide)
peptide: EIETDK(lipoyl)ATIGW
